Measurements reported in patent US20260218140.

Biological target: T1, 5-270 TNA polymerase (synthetic construct (chimera of Thermococcus/Pyrococcus B-family polymerases)) (UniProt P56689)
T1 sequence: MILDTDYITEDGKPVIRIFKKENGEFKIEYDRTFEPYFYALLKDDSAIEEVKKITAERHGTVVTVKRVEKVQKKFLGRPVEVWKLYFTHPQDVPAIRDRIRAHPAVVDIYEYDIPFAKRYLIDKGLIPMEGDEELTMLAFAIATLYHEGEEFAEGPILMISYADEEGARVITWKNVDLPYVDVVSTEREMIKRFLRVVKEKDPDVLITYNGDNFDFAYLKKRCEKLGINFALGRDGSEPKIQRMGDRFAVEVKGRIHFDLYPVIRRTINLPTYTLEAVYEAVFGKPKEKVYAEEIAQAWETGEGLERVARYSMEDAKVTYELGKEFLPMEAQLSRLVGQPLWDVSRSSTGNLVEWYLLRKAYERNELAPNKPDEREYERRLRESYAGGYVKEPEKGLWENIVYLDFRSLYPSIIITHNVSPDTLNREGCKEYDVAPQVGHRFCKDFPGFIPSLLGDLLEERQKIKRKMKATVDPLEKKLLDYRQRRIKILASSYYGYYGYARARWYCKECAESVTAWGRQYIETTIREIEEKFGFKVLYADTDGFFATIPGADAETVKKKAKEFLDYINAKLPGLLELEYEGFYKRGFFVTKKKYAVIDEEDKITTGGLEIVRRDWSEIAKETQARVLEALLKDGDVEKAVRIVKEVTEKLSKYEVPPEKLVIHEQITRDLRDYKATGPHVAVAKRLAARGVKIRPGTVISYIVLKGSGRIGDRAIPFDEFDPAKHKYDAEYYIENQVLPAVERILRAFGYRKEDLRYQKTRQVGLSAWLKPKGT
Settings: TNA primer extension; ~2-fold figure is from text on the clone screen

GTCCCCTTGGGGATACCACC / TCGTTCTCGGACGGAGAGATATTGAANGGTGGTATCCCCAAGGGGAC [PBS8 primer / L30.5 random library template]
binding signal (fold vs Kod-RSGA): 2
